US20190055314A1 (ADAGENE, published 2019)

T1: full-length monkey CD137 on the cell surface (cynomolgus monkey, UniProt Q07011 24-179 (human entry))
T1 chain: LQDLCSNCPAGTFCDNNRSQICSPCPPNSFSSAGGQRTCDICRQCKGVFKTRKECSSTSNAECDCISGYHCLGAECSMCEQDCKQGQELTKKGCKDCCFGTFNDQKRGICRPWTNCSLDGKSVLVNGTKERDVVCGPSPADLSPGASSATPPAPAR

T2: Hu_GTF34AAA (human, UniProt Q07011 18-255)
T2 construct: On HEK293F; also called GFT34AAA
T2 chain: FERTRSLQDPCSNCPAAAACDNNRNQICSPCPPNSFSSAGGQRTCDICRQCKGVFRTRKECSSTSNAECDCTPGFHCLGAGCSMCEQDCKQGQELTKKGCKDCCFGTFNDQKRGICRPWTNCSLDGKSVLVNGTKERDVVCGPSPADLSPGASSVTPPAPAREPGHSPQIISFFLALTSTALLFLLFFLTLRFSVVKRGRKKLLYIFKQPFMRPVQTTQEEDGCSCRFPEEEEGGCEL

T3: Hu_FSS53AAA (human, UniProt Q07011 18-255)
T3 construct: On HEK293F
T3 chain: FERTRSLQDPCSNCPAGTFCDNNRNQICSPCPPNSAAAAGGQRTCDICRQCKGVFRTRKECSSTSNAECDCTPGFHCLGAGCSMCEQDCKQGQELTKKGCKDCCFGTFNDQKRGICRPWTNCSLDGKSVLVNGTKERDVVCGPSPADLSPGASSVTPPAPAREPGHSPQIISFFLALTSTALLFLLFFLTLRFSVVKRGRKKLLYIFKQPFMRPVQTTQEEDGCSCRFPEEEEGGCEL

T4: monkey CD137 fused with human FC fragment (cynomolgus monkey, UniProt Q07011 24-179 (human entry), limits assumed)
T4 construct: also called Cyno CD137-Fc; not shown: human Fc fragment
T4 chain: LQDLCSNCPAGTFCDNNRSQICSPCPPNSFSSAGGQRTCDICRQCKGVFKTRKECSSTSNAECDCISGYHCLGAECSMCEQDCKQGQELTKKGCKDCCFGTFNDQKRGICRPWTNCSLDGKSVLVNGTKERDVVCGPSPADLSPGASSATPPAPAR


Experiments:
[1] = biological target: T1, full-length monkey CD137 on the cell …; experiment: flow cytometry, HEK293F
[2] = biological target: T5, full-length human CD137 on the cell surface (human, UniProt Q07011 18-255); experiment: flow cytometry, HEK293F
T5 construct: also called Human WT
T5 sequence (Q07011 18-255): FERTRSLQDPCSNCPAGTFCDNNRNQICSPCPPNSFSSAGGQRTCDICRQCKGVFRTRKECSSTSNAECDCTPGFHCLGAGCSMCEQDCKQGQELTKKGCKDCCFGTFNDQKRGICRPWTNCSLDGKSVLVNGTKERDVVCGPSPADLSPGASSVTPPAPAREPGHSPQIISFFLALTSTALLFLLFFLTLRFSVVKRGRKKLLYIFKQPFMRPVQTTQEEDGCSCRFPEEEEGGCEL

[3] = biological target: T2, Hu_GTF34AAA; experiment: flow cytometry, HEK293F cells expressing CD137 or mutant [Cont.]
[4] = biological target: T3, Hu_FSS53AAA; experiment: as above
[5] = biological target: T6, Hu_FH92AA (human, UniProt Q07011 18-255); experiment: as above
T6 construct: On HEK293F

[6] = biological target: T7, Hu_CRD1-CRD2-CRD3 (human, UniProt Q07011 24-118, limits assumed); experiment: flow cytometry, yeast display [Cont.]
T7 construct: also called three CRD units (CRD1-CRD2-CRD3) of human CD137

[7] = biological target: T8, Hu_CRD3-CRD4 (human, UniProt Q07011 87-159, limits assumed); experiment: flow cytometry, yeast display [Cont.]
T8 construct: also called two CRD units (CRD3-CRD4) of human CD137

[8] = biological target: T9, Hu_CRD2-CRD3-CRD4 (human, UniProt Q07011 46-159, limits assumed); experiment: flow cytometry, yeast display [Cont.]
T9 construct: also called three CRD units (CRD2-CRD3-CRD4) of human CD137

[9] = biological target: T10, Hu_FN125AA (human, UniProt Q07011 18-255); experiment: flow cytometry, HEK293F cells expressing CD137 or mutant [Cont.]
T10 construct: On HEK293F
T10 sequence (Q07011 18-255 F125A/N126A): as the sequence (Q07011 18-255) above, with F108A, N109A counted along it

[10] = biological target: T11, Hu_PW135AA (human, UniProt Q07011 18-255); experiment: as above
T11 construct: On HEK293F
T11 sequence (Q07011 18-255 P135A/W136A): as the sequence (Q07011 18-255) above, with P118A, W119A counted along it

[11] = biological target: T12, Hu_GT150AA (human, UniProt Q07011 18-255); experiment: as above
T12 construct: On HEK293F
T12 sequence (Q07011 18-255 G150A/T151A): as the sequence (Q07011 18-255) above, with G133A, T134A counted along it

[12] = biological target: T1, full-length monkey CD137 on the cell …; experiment: flow cytometry, PMA/ionomycin-activated monkey T cells, antibody 100 nM
[13] = biological target: T5, full-length human CD137 on the cell …; experiment: flow cytometry ligand competition, HEK293F cells with human CD137, antibody 100 nM then 33 nM biotinylated CD137L, streptavidin-Alexa 647
[14] = biological target: T13, human CD137 fused with human FC fragment (human, UniProt Q07011 24-186, limits assumed); experiment: ELISA, coated CD137-Fc
T13 construct: may be the same reagent as CD137-hisFc; also called human CD137 (FC fusion protein); not shown: human Fc fragment

[15] = biological target: T4, monkey CD137 fused with human FC …; experiment: ELISA, coated CD137-Fc
[16] = biological target: T5, full-length human CD137 on the cell …; experiment: flow cytometry, PMA/ionomycin-activated human T cells, antibody 100 nM
[17] = biological target: T1, full-length monkey CD137 on the cell …; experiment: cell-based or functional assay
[18] = biological target: T5, full-length human CD137 on the cell …; experiment: cell-based or functional assay
[19] = biological target: T14, Hu_EL111AA (human, UniProt Q07011 18-255); experiment: flow cytometry, HEK293F
T14 construct: On HEK293F
T14 sequence (Q07011 18-255 E111A/L112A): as the sequence (Q07011 18-255) above, with E94A, L95A counted along it

[20] = biological target: T15, Hu_GQ109AA (human, UniProt Q07011 18-255); experiment: flow cytometry, HEK293F
T15 construct: On HEK293F
T15 sequence (Q07011 18-255 G109A/Q110A): as the sequence (Q07011 18-255) above, with G92A, Q93A counted along it

[21] = biological target: T16, Hu_TN137AA (human, UniProt Q07011 18-255); experiment: flow cytometry, HEK293F
T16 construct: On HEK293F
T16 sequence (Q07011 18-255 T137A/N138A): as the sequence (Q07011 18-255) above, with T120A, N121A counted along it

[22] = biological target: T17, human CD137-His6 (Sino Biological #10041-H08H) (human, UniProt Q07011 24-186); experiment: SPR Biacore, IgG
T17 construct: Bought; also called human CD137 protein; not shown: His6 tag

Row | Kd [1] [nM] | Kd [2] [nM] | Mean [3] | Mean [4] | % in upper right quadrant [6] [%] | Mean [6] | % in upper right quadrant [7] [%] | Mean [7] | % in upper right quadrant [8] [%] | Mean [8] | binding result [9] | Mean [10] | Mean [11] | % of cells positive for antibody binding [12] [%] | % in upper right quadrant (CD137L signal) [13] [%] | Median (APC signal of bound biotinylated CD137L) [13] | Kd [14] [nM] | Binder | binding result [3] | binding result [4] | binding result [5] | further results
1 | 2.6 | 5 | 893 | 720 | 49.4 | 15100 | 0.39 | 11700 | 0.25 | 14900 | binds | 31600 | 13300 | 8.1 | 52.9 | 46500 | 0.8 | AG10059 (antibody, human IgG4 S228P, kappa, V domains shown) VH: EVQLVESGGGLVQPGGSLRLSCAASGYSITSGHYWAWIRQAPGKGLEWVSSISGYGSTTYYADSVKGRFTISRDNSKNTLYLQLNSLRAEDTAVYYCARGGSDAVLGDWFAYWGQGTLVTVSS VL: DIQLTQSPSSLSASVGDRVTITCRASQGIGSFLAWYQQKPGKAPKLLIYDASNLETGVPSRFSGSGSGTDFTLTISSLQPEDFATYYCQQGYYLWTFGQGTKVEIKR | no binding (tested: 100 nM (as in Example 5)) | no binding (tested: 100 nM (as in Example 5)) | no binding (tested: 100 nM (as in Example 5)) | Kd [15]: 0.4 nM; % of cells positive for antibody binding [16]: 45.1%; NFκB luciferase reporter, 293T cells with monkey CD137: EC50 (read off the curve) [17]: ~1 nM; NFκB luciferase reporter, 293T cells with human CD137: EC50 (read off the curve) [18]: ~10 nM; binding result [19]: binds; binding result [20]: binds; binding result [21]: binds; Kd [22]: 38 nM; koff [22]: 0.0063 s⁻¹; kon [22]: 160000 M⁻¹ s⁻¹
2 | 2 | 1.8 | 878 | 778 | 55.6 | 20000 | 0.19 | 18200 | 0.91 | 7680 | binds | 24300 | 12100 | 9.8 | 37.6 | 22300 | 0.2 | AG10058 (antibody, human IgG4 S228P, kappa, V domains shown) VH: EVQLVESGGGLVQPGGSLRLSCAASGFSLSTSGVGVGWIRQAPGKGLEWLALIDWDDDKYYSPSLKSRLTISRDNSKNTLYLQLNSLRAEDTAVYYCARGGSDTVLGDWFAYWGQGTLVTVSS VL: DIQLTQSPSSLSASVGDRVTITCRASQSVSPYLAWYQQKPGKAPKLLIYDASSLESGVPSRFSGSGSGTDFTLTISSLQPEDFATYYCQQGYSLWTFGQGTKVEIKR | no binding (tested: 100 nM (as in Example 5)) | no binding (tested: 100 nM (as in Example 5)) | no binding (tested: 100 nM (as in Example 5)) | Kd [15]: 0.3 nM; % of cells positive for antibody binding [16]: 52%; NFκB luciferase reporter, 293T cells with monkey CD137: EC50 (read off the curve) [17]: ~1 nM; NFκB luciferase reporter, 293T cells with human CD137: EC50 (read off the curve) [18]: ~5 nM; binding result [19]: binds; binding result [20]: binds; binding result [21]: binds; Kd [22]: 5.9 nM; koff [22]: 0.0024 s⁻¹; kon [22]: 410000 M⁻¹ s⁻¹
